From paper PMC3539426, “Crystal Structure of a 9-Subunit Archaeal Exosome in Pre-Catalytic States of the Phosphorolytic Reaction” (Archaea, 2012)

T1: Rrp42 (S. solfataricus exosome RNase PH subunit) (S. solfataricus, UniProt Q9UXC0 1-275)
T1 construct: Rrp42, RNase PH subunit of the Sulfolobus solfataricus exosome; Three copies stand in the 9-subunit complex; source: E. coli, recombinantly expressed, purified
T1 sequence: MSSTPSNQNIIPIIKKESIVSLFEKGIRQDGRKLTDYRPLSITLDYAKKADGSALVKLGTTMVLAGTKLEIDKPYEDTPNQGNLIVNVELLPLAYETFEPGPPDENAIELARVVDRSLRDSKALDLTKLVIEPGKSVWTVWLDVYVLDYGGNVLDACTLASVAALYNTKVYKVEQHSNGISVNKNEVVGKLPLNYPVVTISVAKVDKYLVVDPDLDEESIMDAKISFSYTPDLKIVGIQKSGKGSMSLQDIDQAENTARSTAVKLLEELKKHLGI

B1: Rrp4 (S. solfataricus exosome RNA binding protein) (natural protein)
chain: MNMSQSQKIVLQPRSIVVPGELLAEGEFQIPWSPYILKINSKYYSTVVGLFDVKDTQFEVIPLEGSFYYPKINDIVIGLVEDVEIYGWVVDIKAPYKAYLPASNLLGRSINVGEDLRRYLDVGDYVIARIENFDRSIDPVLSVKGKDLGRVSNGIVIDIMPVKVPRVIGKNKSMYETLTSKSGCSIFVANNGRIWATCPSRFSEEILIEAIRKIENESHIKGLTDRIKQFIEEKLGERNASSGETKTNS
notes: Three copies stand in the 9-subunit complex; source: E. coli, recombinantly expressed, purified
B2: Rrp41^D182A (S. solfataricus exosome RNase PH subunit Rrp41 with the D182A point mutation) (enzyme)
chain: MREMLQVERPKLILDDGKRTDGRKPDELRSIKIELGVLKNADGSAIFEMGNTKAIAAVYGPKEMHPRHLSLPDRAVLRVRYHMTPFSTDERKNPAPSRREIELSKVIREALESAVLVELFPRTAIDVFTEILQADAGSRLVSLMAASLALADAGIPMRDLIAGVAVGKADGVIILDLNETEAMWGEADMPIAMMPSLNQVTLFQLNGSMTPDEFRQAFDLAVKGINIIYNLEREALKSKYVEFKEEGV
notes: Rrp41, RNase PH subunit of the Sulfolobus solfataricus exosome, with D182A; Three copies stand in the 9-subunit complex 3*(Rrp41/Rrp42/Rrp4); the construct is not described here; source: E. coli, recombinantly expressed, purified

Key:
[1] = target: S. solfataricus exosome, nonameric 3*(Rrp41/Rrp42/Rrp4) complex (Saccharolobus solfataricus, UniProt Q9UXC2, D182A); details: 1.8 Å Pi-bound structure (4ba1), 10 mM Pi soak with 1 mM 7mer poly(A) RNA, RNA not visible; also 2.5 Å structure with RNA and Pi (4ba2); Rrp41 active site R99, G137, S138, R139; catalytically inactive
[2] = target: T1, Rrp42 (S. solfataricus exosome RNase PH …); test: crystal structure; Rrp4/Rrp41^D182A/Rrp42 crystals, space group P213, one copy of each subunit in the asymmetric unit; soaked with 7 mer poly(A) RNA and Pi; 1.8 Å (Pi bound) and 2.5 Å (RNA and Pi bound); details: both partners purified
[3] = target: B1; test: as above; details: both partners purified

binding result [2]	binding result [3]	Molecule	X-ray crystal structure, crystal soaking [1]
–	–	O=P(O)(O)O [Pi, inorganic phosphate]	the Pi ion is bound by four residues from the Rrp41 subunit
binds	–	B1	–
binds	binds	B2	–
